# According to article PMC10326835 (microLife, 2023):
# Like-named read-outs stand apart in the source and are kept apart here.
# B1: LpxA (Escherichia coli K-12) (protein)
# chain: MIDKSAFVHPTAIVEEGASIGANAHIGPFCIVGPHVEIGEGTVLKSHVVVNGHTKIGRDNEIYQFASIGEVNQDLKYAGEPTRVEIGDRNRIRESVTIHRGTVQGGGLTKVGSDNLLMINAHIAHDCTVGNRCILANNATLAGHVSVDDFAIIGGMTAVHQFCIIGAHVMVGGCSGVAQDVPPYVIAQGNHATPFGVNIEGLKRRGFSREAITAIRNAYKLIYRSGKTLDEVKPEIAELAETYPEVKAFTDFFARSTRGLIR
# B2: ^HisRnhB (enzyme, E. coli, UniProt P10442 1-198, looked up)
# chain: MIEFVYPHTQLVAGVDEVGRGPLVGAVVTAAVILDPARPIAGLNDSKKLSEKRRLALYEEIKEKALSWSLGRAEPHEIDELNILHATMLAMQRAVAGLHIAPEYVLIDGNRCPKLPMPAMAVVKGDSRVPEISAASILAKVTRDAEMAALDIVFPQYGFAQHKGYPTAFHLEKLAEHGATEHHRRSFGPVKRALGLAS
# modifications: fluorescently labeled with the His-Tag Labeling Kit RED-tris-NTA
# B3: ^His-SUMORnhA (enzyme, E. coli, UniProt P0A7Y4 1-155, looked up)
# chain: MLKQVEIFTDGSCLGNPGPGGYGAILRYRGREKTFSAGYTRTTNNRMELMAAIVALEALKEHCEVILSTDSQYVRQGITQWIHNWKKRGWKTADKKPVKNVDLWQRLDAALGQHQIKWEWVKGHAGHPENERCDELARAAAMNPTLEDTGYQVEV
# modifications: fluorescently labeled with the His-Tag Labeling Kit RED-tris-NTA
# B4: ^HisRnhA (enzyme, E. coli, UniProt P0A7Y4 1-155, looked up)
# chain: MLKQVEIFTDGSCLGNPGPGGYGAILRYRGREKTFSAGYTRTTNNRMELMAAIVALEALKEHCEVILSTDSQYVRQGITQWIHNWKKRGWKTADKKPVKNVDLWQRLDAALGQHQIKWEWVKGHAGHPENERCDELARAAAMNPTLEDTGYQVEV
# modifications: fluorescently labeled with the His-Tag Labeling Kit RED-tris-NTA
# B5: ^His-SUMORnhB (enzyme, E. coli, UniProt P10442 1-198, looked up)
# chain: MIEFVYPHTQLVAGVDEVGRGPLVGAVVTAAVILDPARPIAGLNDSKKLSEKRRLALYEEIKEKALSWSLGRAEPHEIDELNILHATMLAMQRAVAGLHIAPEYVLIDGNRCPKLPMPAMAVVKGDSRVPEISAASILAKVTRDAEMAALDIVFPQYGFAQHKGYPTAFHLEKLAEHGATEHHRRSFGPVKRALGLAS
# modifications: fluorescently labeled with the His-Tag Labeling Kit RED-tris-NTA
# Assays:
# SpeF = SpeF (Escherichia coli, UniProt P24169); assay: DRaCALA with […]-ppGpp in overexpression lysate; format: cell-based
# Chain of SpeF (P24169 whole entry): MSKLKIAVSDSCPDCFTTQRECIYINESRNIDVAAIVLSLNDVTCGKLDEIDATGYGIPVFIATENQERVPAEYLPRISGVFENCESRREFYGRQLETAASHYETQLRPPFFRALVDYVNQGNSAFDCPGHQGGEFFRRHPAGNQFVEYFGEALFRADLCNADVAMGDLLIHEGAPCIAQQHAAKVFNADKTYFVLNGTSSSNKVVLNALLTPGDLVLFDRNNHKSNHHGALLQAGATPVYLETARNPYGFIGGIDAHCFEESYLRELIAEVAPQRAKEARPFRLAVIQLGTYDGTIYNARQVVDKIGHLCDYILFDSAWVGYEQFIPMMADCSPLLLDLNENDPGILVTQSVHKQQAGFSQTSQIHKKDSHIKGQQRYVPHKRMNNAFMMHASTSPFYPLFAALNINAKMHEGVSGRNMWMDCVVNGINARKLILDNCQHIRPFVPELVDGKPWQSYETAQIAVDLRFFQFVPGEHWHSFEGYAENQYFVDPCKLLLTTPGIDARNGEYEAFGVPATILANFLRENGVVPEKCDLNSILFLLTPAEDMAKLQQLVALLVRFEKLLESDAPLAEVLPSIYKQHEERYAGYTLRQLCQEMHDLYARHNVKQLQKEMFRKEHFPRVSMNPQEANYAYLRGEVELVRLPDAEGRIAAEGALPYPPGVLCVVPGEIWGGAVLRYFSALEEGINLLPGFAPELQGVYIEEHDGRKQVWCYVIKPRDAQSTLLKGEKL
# ObgE = ObgE (Escherichia coli, UniProt P42641); assay: DRaCALA with […]-ppGpp in overexpression lysate; format: cell-based
# Chain of ObgE (P42641 whole entry): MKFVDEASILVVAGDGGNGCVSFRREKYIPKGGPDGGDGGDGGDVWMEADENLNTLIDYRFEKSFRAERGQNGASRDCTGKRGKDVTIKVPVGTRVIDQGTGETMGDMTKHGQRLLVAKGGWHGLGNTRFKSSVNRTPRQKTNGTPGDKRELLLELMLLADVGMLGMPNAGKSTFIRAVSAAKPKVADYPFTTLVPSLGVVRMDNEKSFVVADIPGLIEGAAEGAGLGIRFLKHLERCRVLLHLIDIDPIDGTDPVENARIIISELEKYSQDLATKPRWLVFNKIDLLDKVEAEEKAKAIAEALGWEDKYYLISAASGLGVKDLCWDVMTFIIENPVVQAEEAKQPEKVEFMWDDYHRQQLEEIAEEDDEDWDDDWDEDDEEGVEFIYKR
# RelA = target: T1, RelA (Escherichia coli, UniProt P0AG20); assay: DRaCALA with […]-ppGpp in overexpression lysate; format: cell-based
# T1 sequence (P0AG20 1-744): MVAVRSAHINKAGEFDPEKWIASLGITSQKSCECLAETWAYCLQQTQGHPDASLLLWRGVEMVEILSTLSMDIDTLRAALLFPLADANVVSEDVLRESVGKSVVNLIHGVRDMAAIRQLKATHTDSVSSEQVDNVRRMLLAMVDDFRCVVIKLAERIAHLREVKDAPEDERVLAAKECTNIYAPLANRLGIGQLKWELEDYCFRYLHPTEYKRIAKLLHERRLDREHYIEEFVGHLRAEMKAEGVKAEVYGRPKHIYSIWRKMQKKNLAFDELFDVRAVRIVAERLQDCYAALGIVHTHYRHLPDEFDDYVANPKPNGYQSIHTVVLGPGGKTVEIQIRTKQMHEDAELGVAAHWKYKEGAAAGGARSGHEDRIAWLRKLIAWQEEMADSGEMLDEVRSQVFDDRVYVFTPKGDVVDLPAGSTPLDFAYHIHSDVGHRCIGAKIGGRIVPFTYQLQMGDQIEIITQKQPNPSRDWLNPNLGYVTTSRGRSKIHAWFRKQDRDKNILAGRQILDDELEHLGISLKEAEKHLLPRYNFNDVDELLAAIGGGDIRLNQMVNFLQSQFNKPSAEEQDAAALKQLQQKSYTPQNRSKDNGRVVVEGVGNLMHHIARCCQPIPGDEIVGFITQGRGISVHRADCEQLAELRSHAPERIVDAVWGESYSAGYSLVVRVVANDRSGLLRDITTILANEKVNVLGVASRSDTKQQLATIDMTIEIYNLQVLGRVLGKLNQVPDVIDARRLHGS
# purified protein = substrate: CC(=O)N[C@H]1[C@@H](OP(=O)(O)OP(=O)(O)OC[C@H]2O[C@@H](n3ccc(=O)[nH]c3=O)[C@H](O)[C@@H]2O)O[C@H](CO)[C@@H](O)[C@@H]1O; assay: purified protein
# ^strepLpxA [1] = target: T2, ^strepLpxA (E. coli, UniProt P0A722 1-262); assay: MST
# T2 sequence: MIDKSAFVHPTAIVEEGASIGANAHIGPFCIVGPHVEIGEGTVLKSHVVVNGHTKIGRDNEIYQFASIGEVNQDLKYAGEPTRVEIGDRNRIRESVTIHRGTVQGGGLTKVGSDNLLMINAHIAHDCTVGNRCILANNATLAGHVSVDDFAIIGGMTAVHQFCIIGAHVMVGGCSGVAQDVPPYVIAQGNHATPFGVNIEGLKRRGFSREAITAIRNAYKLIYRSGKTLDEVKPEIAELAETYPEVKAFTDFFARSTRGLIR
# ^strepLpxA [2] = target: T2, ^strepLpxA; assay: MST; remark: listed apart in the source
Molecule,binding result (^strepLpxA [1]),binding result (^strepLpxA [2]),further results
Nc1nc2c(ncn2[C@@H]2O[C@H](COP(=O)(O)OP(=O)(O)O)[C@@H](OP(=O)(O)OP(=O)(O)O)[C@H]2O)c(=O)[nH]1 [ppGpp],,,% relative to RelA (SpeF): 73 ± 12 % relative to RelA; % relative to RelA (ObgE): 86 ± 12 % relative to RelA; % (reference binding) (RelA): 100 % (reference binding)
B1,,,Km (purified protein): 494 µM
B2,binds,,
B3,,binds,
B4,binds,,
B5,,binds,
